# Source: the nanobody polyreactivity screen of Harvey et al. (2022)
# Assay: yeast display, Sf9 membrane polyspecificity reagent, FACS + sequencing; frameworks hold sequencing errors
# Procedure, shortened: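 Polyreactivity labels are assigned by the sorting gate from which each nanobody was recovered. The gates were low and high (top ~1%), set on anti-HA fluorescence for expression and streptavidin fluorescence for reagent binding. Before sorting, galactose-induced (36–48 hours) yeast display cells were stained for 1 hour at 4 °C with 10% biotinylated, detergent-solubilized Sf9 membrane reagent.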
row,Sequence,polyreactivity (PSR sort gate)
1,QVQLVESGGGLVQAGGSLRLSCAASGSIFDYYDMGWYRQAPGKERELVAAINWSGGITYYADSVKGRFTISRDNAKNTVYLQMNSLKPEDTAVYYCAADWYQWVYSSSITSFDYWGQGTQVTVSS,low polyreactivity
2,QVQLVESGGGLVQAGGSLRLSCAASGSTFRYYTMGWYRQAPGKERELVAAITWSGGSTYYADSVKGRFTISRDNAKNTVYLQMNSLKPEDTAVYYCNARSLQWTPRAYYYWGQGTQVTVSS,high polyreactivity
3,QVQLVESGGGLVQAGGSLRLSCAASGSTFQVYAMGWYRQAPGKERELVAAISNGGRTNYADSVKGRFTISRDNAKNTVYLLMNSLKPEDTAVYYCNADQVWWSFDRVLVGYEYWGQGTQVTVSS,low polyreactivity
4,QVQLVESGGGLVQAGGSLRLSCAASGFIFVNYAMGWNRQAPGKERELVAAISARGGSTNYADSVKGRFTISRDNAKNTVYLQMNSLKPEDTAVYYCAARYTARRQSYGYWGQGTQVTVSS,high polyreactivity
5,QVQLVESGGGLVQAGGSLRLSCAASGSIFSGYVMGWYRQAPGKERELVAAINSRAGRTYYADSVKGRFTISRDNAKNTVYLQMNSLKPEDTAVYYCNAPTSFHRGGGYWGQGTQVTVSS,high polyreactivity
6,QVQLVESGGGLVQAGGSLRISCAASGRIFWTYAMGSYRQAPGKERELVAAITWRGGSTSYADSVKGRFTISRDNAKNTVYLQMNSLKPEDTAVYYCAADTYSYLRGTYEYDYWGQGTQVTVSS,high polyreactivity
7,QVQLVESGGGLVQAGGSLRLSCAASGSTFTLYAMGWYRQAPGKERELVAAISGIGDSTYYADSVKGRFTISRDNAKNTVYFQMNSLKPEDTAVYYCAADGEYRYVWEYESWGQGTQVTVSS,low polyreactivity
8,QVQLVESGGGLVQAGGSLRLSCAASGYTFGTYTMGWYRQAPGKERELVAGIDSGGTTNYADSVKGRFTISRDNAKNTVYLKMNRVKPEDTAVYYCTAYHLLIVDYYLGMYYYGGNYYWGQGNQVTVSS,low polyreactivity
9,QVQLEESAGGIVQAGGSLRFSCAASGSTISAYDIGCYRQEPGKEWELVAAITWIGGNTYYADSVKGRFTISRDTAKNTVYLQMNSLKPEDTEFYYCAAEEVPYDRDMDYWGQGTQVTVSS,low polyreactivity
10,QDQLVESGGGLVQAGGSLRLSCAASASTFPYNPMGRYRQAPRKERELVAAITATDDSTYYADSVKGRFTISRDNAKNTVYLQMNSLKPEDTAVYYCAADFGGYVFYFGYDYWGQGTQVTVSS,low polyreactivity
11,QVQLVESGGGLVQAGGSLRLSCAASGSIIGYYAMGWYRQARGKERELVAAISSSGASTYYADSVKGRFTISRDNAKYTVYLQMNSLKPEDTAVYYCNAARRYPTRGGYWGQGTQVTVSS,high polyreactivity
12,QVQLVESGGGLVQAGGSLRLSCAASGSIFRLYAMGWYRQAPGKEREFVARIRWRGGSTNYADSVKGRFTISRDNAKNTVYLQMNSLKPEDTAVYYCAAKQGTVRAHTYVPWYDYWGQGTQVTVSS,high polyreactivity
13,QVQLVESGGGLVQAGGSLRISCAASGNIFGIYTMGWYRQAPGKEREFFAVISLSGTSTYYADSVKGRFTISRDNAKNTVYLQMNSLKPEDTAVYYCNARTPHNKGRRRAYDYWGLGTQVTVSS,high polyreactivity
14,QVQLVESGGGLVQAGGSLRLSCAASGSISYRYAMGWYRQAPGKERELVAAISYRGGTTYYADSVKGRFTISRDNAKNTVYLQMNSLKPEDTAVYYCADDFFGSSYPFYYWGQGTQVTVSS,high polyreactivity
15,QVQIVESGGGLVQAGGSLRLSCAASGSIFSRYAMGWYRQAPGKERELVAAISGRGGGTYYADSVKGRFTISRDNAKNTVYLQMNSLKPEDTAVYYCAAQLGRPAYSRVSWRAYYYWGQGTQVTVSS,low polyreactivity
16,QVQLVESGGGLVQAGGSLRLSCAASGRTFRGNAMGWDRQAPVKERELVAAITWGVGSTYYADSVKGRFTISRDNAKNTVYLQMNSLKPEDTAVYYCATRSYRGRDGFGYWGQGTQVTVSS,high polyreactivity
17,QVQLVESGGGLVQAGGSLRLSCAASGSIFSHYAMGWYRQAPGKERELVARITWGGGSTYADCVKGRFTISRDNAKNTVYLQMKSLKPEDTAVYYCAAVPVGYDSDWGYYYWGQGTQVTVSS,low polyreactivity
